In paper PMC6519983:

Target: microtubules (MTs) formed in Xenopus egg extracts (Xenopus laevis (endogenous in egg extract))
Assay: TIRF microscopy of GFP-TPX2 on microtubules; endogenous TPX2 immunodepleted and replaced with 20-30 nM (25 nM) GFP-TPX2 in Xenopus egg extract; 10 µM RanQ69L, 0.5 mM vanadate; silane-passivated coverslips; rise of TPX2 intensity at single pixels of individual de novo MTs before the first branch, normalised by the fluorescence of a single GFP-TPX2 molecule

**Q.** With “Full-length TPX2 with N-terminal Strep II-6xHis-GFP-TEV site tags (natural protein)” as the substance, how does the binding rate (molecules μm^−1 s^−1) read?
**A.** Its binding rate (molecules μm^−1 s^−1) is 0.4.
